Data reported in patent US20250354164A1.

Biological target: Cas9 protein fused to 10 tandem copies of GCN4 peptide separated by linkers (SunTag) (Streptococcus pyogenes) (UniProt Q99ZW2)
Test: cell-based or functional assay

UniProt Q99ZW2, sequence (Q99ZW2 whole entry, the tested form may be a part): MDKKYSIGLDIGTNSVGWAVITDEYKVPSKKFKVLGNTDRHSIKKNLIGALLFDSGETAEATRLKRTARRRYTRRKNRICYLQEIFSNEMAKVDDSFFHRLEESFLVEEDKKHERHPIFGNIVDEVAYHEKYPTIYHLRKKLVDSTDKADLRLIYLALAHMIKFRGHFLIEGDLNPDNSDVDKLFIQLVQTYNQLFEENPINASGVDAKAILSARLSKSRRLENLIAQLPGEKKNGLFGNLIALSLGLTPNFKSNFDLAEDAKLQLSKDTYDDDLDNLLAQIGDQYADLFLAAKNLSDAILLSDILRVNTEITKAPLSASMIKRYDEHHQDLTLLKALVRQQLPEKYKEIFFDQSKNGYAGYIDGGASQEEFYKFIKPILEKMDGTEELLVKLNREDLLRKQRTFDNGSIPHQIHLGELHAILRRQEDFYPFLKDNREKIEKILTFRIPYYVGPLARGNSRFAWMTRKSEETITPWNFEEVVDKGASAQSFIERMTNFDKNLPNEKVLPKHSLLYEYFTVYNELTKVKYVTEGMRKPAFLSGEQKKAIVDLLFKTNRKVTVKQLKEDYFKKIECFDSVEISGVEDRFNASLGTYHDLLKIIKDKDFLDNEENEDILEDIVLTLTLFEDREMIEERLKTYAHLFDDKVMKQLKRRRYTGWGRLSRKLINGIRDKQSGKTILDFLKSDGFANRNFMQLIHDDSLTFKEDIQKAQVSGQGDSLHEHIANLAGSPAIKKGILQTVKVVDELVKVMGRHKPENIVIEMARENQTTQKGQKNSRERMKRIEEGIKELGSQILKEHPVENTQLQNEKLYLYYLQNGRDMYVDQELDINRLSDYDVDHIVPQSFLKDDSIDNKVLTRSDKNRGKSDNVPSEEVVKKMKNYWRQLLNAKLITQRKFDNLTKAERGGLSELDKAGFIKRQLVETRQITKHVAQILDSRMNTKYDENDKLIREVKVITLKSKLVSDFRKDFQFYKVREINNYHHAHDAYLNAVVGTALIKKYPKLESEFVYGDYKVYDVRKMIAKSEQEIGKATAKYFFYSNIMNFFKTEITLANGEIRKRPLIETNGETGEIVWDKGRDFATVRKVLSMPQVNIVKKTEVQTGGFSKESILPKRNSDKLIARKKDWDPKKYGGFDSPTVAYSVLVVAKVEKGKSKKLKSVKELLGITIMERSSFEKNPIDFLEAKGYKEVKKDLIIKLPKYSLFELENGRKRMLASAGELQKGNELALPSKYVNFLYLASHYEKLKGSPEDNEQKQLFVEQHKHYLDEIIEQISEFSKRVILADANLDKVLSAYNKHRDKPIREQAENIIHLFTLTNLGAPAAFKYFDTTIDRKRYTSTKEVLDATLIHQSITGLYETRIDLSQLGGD

REDIT recombinator protein (SSAP RecT) fused to scFV antibody peptide (SunTag recruitment)
HRD efficiencies (mKate knock-in assay): 2 fold
